Measured values published in article PMC4868535, “A G-protein activation cascade from Arl13B to Arl3 and implications for ciliary targeting of lipidated proteins” (eLife, 2015).
Positions count from the first letter of the chain named. In names and notes the source's numbering stands.

What was measured:
[1] = molecular target: T1, CrArl13B 18-278 (Chlamydomonas reinhardtii, UniProt A8INQ0); assay: nucleotide loading (HPLC) and GEF activity of the loaded protein; type: binding; settings: 5 mM MgCl2, pH 7.5, 20°C
T1 construct: gene ARL13; residues 18-278 (G-domain plus C-terminal helix), expressed in E. coli as GST fusion
T1 sequence (A8INQ0 18-278): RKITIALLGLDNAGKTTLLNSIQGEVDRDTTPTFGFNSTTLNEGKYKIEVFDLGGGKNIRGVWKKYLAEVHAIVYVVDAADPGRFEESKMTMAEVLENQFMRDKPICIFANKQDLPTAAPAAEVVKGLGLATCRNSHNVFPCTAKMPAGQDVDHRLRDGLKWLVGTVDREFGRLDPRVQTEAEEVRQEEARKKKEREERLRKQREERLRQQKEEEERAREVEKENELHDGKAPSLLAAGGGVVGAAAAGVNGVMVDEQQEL

[2] = molecular target: T2, CrArl13B-CrArl3 complex (CrArl3 nucleotide site) (Chlamydomonas reinhardtii, UniProt A8ISN6); assay: X-ray crystal structure […] Å; type: binding; settings: Mg2+; nucleotide site of CrArl3; post-nucleotide-exchange state
T2 construct: gene ARL3; crystal complex, one in asymmetric unit; last 58 residues of CrArl13B not visible; from E. coli; with ADP-ribosylation factor-like protein 13B
T2 sequence (A8ISN6 2-177 limits assumed): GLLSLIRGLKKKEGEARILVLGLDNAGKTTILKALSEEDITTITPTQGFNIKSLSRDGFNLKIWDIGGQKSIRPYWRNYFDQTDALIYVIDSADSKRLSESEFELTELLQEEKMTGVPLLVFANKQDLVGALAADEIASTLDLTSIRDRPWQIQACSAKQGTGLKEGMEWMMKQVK
T2 sequence (A8INQ0 18-278 partner): T1 sequence (A8INQ0 18-278)

[3] = molecular target: T3, CrArl13B-CrArl3 complex (CrArl13B nucleotide site) (Chlamydomonas reinhardtii, UniProt A8INQ0); assay: X-ray crystal structure […] Å; type: binding; settings: Mg2+; nucleotide site of CrArl13B
T3 construct: gene ARL13; crystal complex, one in asymmetric unit; last 58 residues of CrArl13B not visible; from E. coli; with ADP-ribosylation factor-like protein 3
T3 sequence (A8INQ0 18-278): T1 sequence (A8INQ0 18-278)
T3 sequence (A8ISN6 2-177 partner): T2 sequence (A8ISN6 2-177 limits assumed)

[4] = molecular target: CrArl3 (Chlamydomonas reinhardtii)
[5] = molecular target: CrArl3 (Chlamydomonas reinhardtii); remark: listed apart in the source
[6] = molecular target: CrArl3 D103R (Chlamydomonas reinhardtii)
[7] = molecular target: CrArl3 D146R (Chlamydomonas reinhardtii)
[8] = molecular target: CrArl3 (Chlamydomonas reinhardtii); remark: listed apart in the source

Molecule: Nc1nc2c(ncn2[C@@H]2O[C@H](COP(=O)(O)OP(=O)(O)OP(=O)(O)O)[C@@H](O)[C@H]2O)c(=O)[nH]1 [GTP]
- nucleotide loading (HPLC) and GEF activity of the loaded protein ([1]; GTP-bound state compared by GEF activity on CrArl3·mantGDP): CrArl13B preloaded with GDP, GTP, or GppNHp was used to analyze the exchange activity

Molecule: Nc1nc2c(ncn2[C@@H]2O[C@H](COP(=O)(O)OP(=O)(O)O)[C@@H](O)[C@H]2O)c(=O)[nH]1 [GDP]
- nucleotide loading (HPLC) and GEF activity of the loaded protein ([1]; GDP-bound state compared by GEF activity on CrArl3·mantGDP): CrArl13B preloaded with GDP, GTP, or GppNHp was used to analyze the exchange activity

Molecule: Nc1nc2c(ncn2[C@@H]2O[C@H](COP(=O)(O)OP(=O)(O)NP(=O)(O)O)[C@@H](O)[C@H]2O)c(=O)[nH]1 [GppNHp]
- X-ray crystal structure 2.5 Å [2]: GppNHp was clearly visible in both active sites
- X-ray crystal structure 2.5 Å [3]: GppNHp was clearly visible in both active sites

B1: CrArl13B △203 (18–202) (domain or fragment)
chain: RKITIALLGLDNAGKTTLLNSIQGEVDRDTTPTFGFNSTTLNEGKYKIEVFDLGGGKNIRGVWKKYLAEVHAIVYVVDAADPGRFEESKMTMAEVLENQFMRDKPICIFANKQDLPTAAPAAEVVKGLGLATCRNSHNVFPCTAKMPAGQDVDHRLRDGLKWLVGTVDREFGRLDPRVQTEAEEV
- Kobs of nucleotide release from CrArl3 wt with 5 µM CrArl13B △203 (GEF assay, deletion constructs) [4]: 0.0001 s⁻¹

B2: CrArl13B △220 (18–219) (domain or fragment)
chain: RKITIALLGLDNAGKTTLLNSIQGEVDRDTTPTFGFNSTTLNEGKYKIEVFDLGGGKNIRGVWKKYLAEVHAIVYVVDAADPGRFEESKMTMAEVLENQFMRDKPICIFANKQDLPTAAPAAEVVKGLGLATCRNSHNVFPCTAKMPAGQDVDHRLRDGLKWLVGTVDREFGRLDPRVQTEAEEVRQEEARKKKEREERLRK
- Kobs of nucleotide release from CrArl3 wt with 5 µM CrArl13B △220 (GEF assay, deletion constructs) [4]: 0.0011 s⁻¹

B3: CrArl13B △213 (18–212) (domain or fragment)
chain: RKITIALLGLDNAGKTTLLNSIQGEVDRDTTPTFGFNSTTLNEGKYKIEVFDLGGGKNIRGVWKKYLAEVHAIVYVVDAADPGRFEESKMTMAEVLENQFMRDKPICIFANKQDLPTAAPAAEVVKGLGLATCRNSHNVFPCTAKMPAGQDVDHRLRDGLKWLVGTVDREFGRLDPRVQTEAEEVRQEEARKKKE
- Kobs of nucleotide release from CrArl3 wt with 5 µM CrArl13B △213 (GEF assay, deletion constructs) [4]: 0.0001 s⁻¹

B4: CrArl13B △243 (18–242) (domain or fragment)
chain: RKITIALLGLDNAGKTTLLNSIQGEVDRDTTPTFGFNSTTLNEGKYKIEVFDLGGGKNIRGVWKKYLAEVHAIVYVVDAADPGRFEESKMTMAEVLENQFMRDKPICIFANKQDLPTAAPAAEVVKGLGLATCRNSHNVFPCTAKMPAGQDVDHRLRDGLKWLVGTVDREFGRLDPRVQTEAEEVRQEEARKKKEREERLRKQREERLRQQKEEEERAREVEKEN
- Kobs of nucleotide release from CrArl3 wt with 5 µM CrArl13B △243 (GEF assay, deletion constructs) [4]: 0.0045 s⁻¹

B5: CrArl13B^18-–278 (domain or fragment)
chain: T1 sequence (A8INQ0 18-278)
- Kobs of mantGDP release from 500 nM CrArl3 with 5 µM CrArl13B·GDP (GEF assay) [5]: 0.0009 s⁻¹
- Kobs of mantGDP release from 500 nM CrArl3 with 5 µM CrArl13B·GTP (GEF assay) [5]: 0.006 s⁻¹
- Kobs of mantGDP release from 500 nM CrArl3 with 5 µM CrArl13B·GppNHp (GEF assay) [5]: 0.0078 s⁻¹
- Kobs of nucleotide release from 500 nM CrArl3·mantGppNHp with 5 µM CrArl13B wt (GEF assay, switch interface mutants) [4]: 0.0091 s⁻¹
- Kobs of nucleotide release from CrArl3 wt with 5 µM CrArl13B 18-278 (GEF assay, deletion constructs) [4]: 0.0066 s⁻¹
- Kobs of nucleotide release from CrArl3 wt·mantGppNHp with 5 µM CrArl13B wt (GEF assay, charge reversal interface mutants) [4]: 0.0085 s⁻¹
- Kobs of nucleotide release from CrArl3 D103R·mantGppNHp with 5 µM CrArl13B wt (GEF assay) [6]: 0.00014 s⁻¹
- Kobs of nucleotide release from CrArl3 D146R·mantGppNHp with 5 µM CrArl13B wt (GEF assay) [7]: 0.00014 s⁻¹
- KM of the GEF reaction (kobs of mantGDP release from 500 nM CrArl3 against GEF concentration) for CrArl13B·GDP [8]: 155 µM
- KM of the GEF reaction (kobs of mantGDP release from 500 nM CrArl3 against GEF concentration) for CrArl13B·GTP [8]: 1.1 µM

B6: CrArl13B H154W (18-278) (domain or fragment)
chain: T1 sequence (A8INQ0 18-278) with H137W
- Kobs of nucleotide release from CrArl3 wt·mantGppNHp with 5 µM CrArl13B H154W (GEF assay) [4]: 0.0088 s⁻¹

B7: CrArl13B Y83A (18-278) (domain or fragment)
chain: T1 sequence (A8INQ0 18-278) with Y66A
- Kobs of nucleotide release from 500 nM CrArl3·mantGppNHp with 5 µM CrArl13B Y83A (GEF assay) [4]: 0.0009 s⁻¹

B8: CrArl13B F51A (18-278) (domain or fragment)
chain: T1 sequence (A8INQ0 18-278) with F34A
- Kobs of nucleotide release from 500 nM CrArl3·mantGppNHp with 5 µM CrArl13B F51A (GEF assay) [4]: 0.002 s⁻¹

B9: CrArl13B D46A (18-278) (domain or fragment)
chain: T1 sequence (A8INQ0 18-278) with D29A
- Kobs of nucleotide release from 500 nM CrArl3·mantGppNHp with 5 µM CrArl13B D46A (GEF assay) [4]: 0.0041 s⁻¹

B10: CrArl13B N75A (18-278) (domain or fragment)
chain: T1 sequence (A8INQ0 18-278) with N58A
- Kobs of nucleotide release from 500 nM CrArl3·mantGppNHp with 5 µM CrArl13B N75A (GEF assay) [4]: 0.0044 s⁻¹

B11: CrArl13B^F53A (18-278) (domain or fragment)
chain: T1 sequence (A8INQ0 18-278) with F36A
- Kobs of nucleotide release from 500 nM CrArl3·mantGppNHp with 5 µM CrArl13B F53A (GEF assay) [4]: 0.00042 s⁻¹

B12: CrArl13B △233 (18–232) (domain or fragment)
chain: RKITIALLGLDNAGKTTLLNSIQGEVDRDTTPTFGFNSTTLNEGKYKIEVFDLGGGKNIRGVWKKYLAEVHAIVYVVDAADPGRFEESKMTMAEVLENQFMRDKPICIFANKQDLPTAAPAAEVVKGLGLATCRNSHNVFPCTAKMPAGQDVDHRLRDGLKWLVGTVDREFGRLDPRVQTEAEEVRQEEARKKKEREERLRKQREERLRQQKEEE
- Kobs of nucleotide release from CrArl3 wt with 5 µM CrArl13B △233 (GEF assay, deletion constructs) [4]: 0.005 s⁻¹
